Assay results: patent US20120121587A1 (Chugai, published 2012)
Numbering of substitutions follows the chain as printed.

B1: chH/L0 (antibody, V domains shown, not shown: a dimerising Fc or GST)
VH: QVQLKQSGPGLVAPSQSLSITCTVSGLSLTSFGVDWVRQSPGKGLEWLGVIWGGGSTNYNSALKSRLSISKDNSKSQVFLKMNSLQTDDTAMYYCAGEGSKYGAWFAYWGQGTLVTVSA
VL: DVVMTQSPLSLPVTLGQPASISCRSSQNIVHTNGNTYLEWYQQKPGKAPELLIYKVSNRFSGVPDRFSGSGSGTDFTLKISRVEAEDVGVYYCFQGSHIPFTFGQGTKLEIKR
notes: Chimeric H chain with humanized L chain
B2: H6/L0 (antibody, V domains shown, not shown: a dimerising Fc or GST)
VH: B1 VH with G97R
VL: B1 VL
notes: H6 is chH with arginine for glycine at Kabat position 94
B3: H0/L0 (antibody, human IgG1, kappa, V domains shown)
VH: QVTLKESGPVLVKPTETLTLTCTVSGFSLSSFGVDWVRQAPGKGLEWMGVIWGGGSTNYNSALKSRLTISKDTSKSQVVLTMTNMDPVDTATYYCAGEGSKYGAWFAYWGQGTLVTVSS
VL: B1 VL
notes: Humanized Ax225; IgG1 constant region without G446 and K447 (EU), natural human kappa
B4: H49/L31 (antibody, human IgG1, kappa)
heavy: not shown
light: DVVMTQSPLSLPVTLGQPASISCRSSRNIVHTNGNTYLEWYQQKPGKAPKLLIYKVSNRFSGVPDRFSGSGSGTDFTLKISRVEAEDVGVYYCFQGSHIPFTFGQGTKLEIKRTVAAPSVFIFPPSDEQLKSGTASVVCLLNNFYPREAKVQWKVDNALQSGNSQESVTEQDSKDSTYSLSSTLTLSKADYEKHKVYACEVTHQGLSSPVTKSFNRGEC
B5: H47/L34 (antibody, human IgG1, kappa)
heavy: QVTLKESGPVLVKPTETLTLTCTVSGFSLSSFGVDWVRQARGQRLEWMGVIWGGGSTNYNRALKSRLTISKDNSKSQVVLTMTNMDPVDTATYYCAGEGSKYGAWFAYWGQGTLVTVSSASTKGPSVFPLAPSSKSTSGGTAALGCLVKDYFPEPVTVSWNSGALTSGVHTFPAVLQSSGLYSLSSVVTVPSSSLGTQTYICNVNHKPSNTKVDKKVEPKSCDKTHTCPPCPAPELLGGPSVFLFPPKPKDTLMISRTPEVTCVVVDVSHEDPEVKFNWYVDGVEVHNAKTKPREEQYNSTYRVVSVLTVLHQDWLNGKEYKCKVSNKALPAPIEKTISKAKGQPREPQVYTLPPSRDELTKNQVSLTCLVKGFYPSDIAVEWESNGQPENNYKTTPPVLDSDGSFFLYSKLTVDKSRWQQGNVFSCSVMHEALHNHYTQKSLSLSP
light: B4 light with Q17R
B6: H47/L28 (antibody, human IgG1, kappa)
heavy: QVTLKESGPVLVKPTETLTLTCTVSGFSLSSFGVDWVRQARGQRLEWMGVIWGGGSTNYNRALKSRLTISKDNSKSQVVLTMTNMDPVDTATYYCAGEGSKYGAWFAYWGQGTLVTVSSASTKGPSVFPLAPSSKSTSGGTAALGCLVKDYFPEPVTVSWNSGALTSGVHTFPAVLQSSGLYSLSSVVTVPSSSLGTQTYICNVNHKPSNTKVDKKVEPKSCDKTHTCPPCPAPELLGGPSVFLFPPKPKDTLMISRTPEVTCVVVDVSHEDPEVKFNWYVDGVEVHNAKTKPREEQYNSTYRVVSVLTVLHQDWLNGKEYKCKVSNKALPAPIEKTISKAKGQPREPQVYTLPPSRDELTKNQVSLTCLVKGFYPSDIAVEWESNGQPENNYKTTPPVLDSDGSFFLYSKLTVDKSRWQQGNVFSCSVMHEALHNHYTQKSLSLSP
light: B4 light with R27Q
B7: H48/L34 (antibody, human IgG1, kappa)
heavy: not shown
light: B4 light with Q17R
B8: H49/L0 (antibody, human IgG1, kappa)
heavy: not shown
light: B4 light with R27Q, K50E
B9: H50/L31 (antibody, human IgG1, kappa)
heavy: not shown
light: B4 light
B10: H48/L35 (antibody, human IgG1, kappa)
heavy: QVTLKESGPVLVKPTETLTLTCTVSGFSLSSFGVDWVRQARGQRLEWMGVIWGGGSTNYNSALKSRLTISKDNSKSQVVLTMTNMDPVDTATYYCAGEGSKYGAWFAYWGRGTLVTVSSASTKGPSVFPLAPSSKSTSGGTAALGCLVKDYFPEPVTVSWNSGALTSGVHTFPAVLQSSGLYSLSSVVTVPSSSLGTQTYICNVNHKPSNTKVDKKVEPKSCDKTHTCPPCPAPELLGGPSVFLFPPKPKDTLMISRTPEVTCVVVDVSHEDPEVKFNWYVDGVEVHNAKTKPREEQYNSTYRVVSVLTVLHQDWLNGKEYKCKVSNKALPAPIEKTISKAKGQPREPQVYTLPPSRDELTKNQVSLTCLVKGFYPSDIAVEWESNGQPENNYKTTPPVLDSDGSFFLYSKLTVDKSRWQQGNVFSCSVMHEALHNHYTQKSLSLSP
light: B4 light with Q105R
B11: H48/L11 (antibody, human IgG1, kappa)
heavy: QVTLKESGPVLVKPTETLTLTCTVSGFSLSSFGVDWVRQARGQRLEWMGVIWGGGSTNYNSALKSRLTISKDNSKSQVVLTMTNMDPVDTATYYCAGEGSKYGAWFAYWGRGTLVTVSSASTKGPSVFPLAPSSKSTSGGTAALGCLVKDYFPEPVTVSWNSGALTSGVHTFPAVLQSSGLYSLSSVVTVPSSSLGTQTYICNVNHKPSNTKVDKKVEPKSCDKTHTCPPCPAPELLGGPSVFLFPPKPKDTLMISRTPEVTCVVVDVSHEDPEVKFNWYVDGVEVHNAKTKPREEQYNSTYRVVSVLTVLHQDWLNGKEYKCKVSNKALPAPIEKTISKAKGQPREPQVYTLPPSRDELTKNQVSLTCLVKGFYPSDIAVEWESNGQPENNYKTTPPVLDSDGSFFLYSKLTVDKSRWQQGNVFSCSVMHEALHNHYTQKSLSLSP
light: B4 light with R24Q, R27Q, K50E, L109V, K112E
B12: H50/L37 (antibody, human IgG1, kappa)
heavy: not shown
light: B4 light with Q17R, Q105R
B13: H48/L28 (antibody, human IgG1, kappa)
heavy: not shown
light: B4 light with R27Q
B14: H50/L27 (antibody, human IgG1, kappa)
heavy: not shown
light: B4 light with K50E
B15: H48/L27 (antibody, human IgG1, kappa)
heavy: not shown
light: B4 light with K50E
B16: H48/L31 (antibody, human IgG1, kappa)
heavy: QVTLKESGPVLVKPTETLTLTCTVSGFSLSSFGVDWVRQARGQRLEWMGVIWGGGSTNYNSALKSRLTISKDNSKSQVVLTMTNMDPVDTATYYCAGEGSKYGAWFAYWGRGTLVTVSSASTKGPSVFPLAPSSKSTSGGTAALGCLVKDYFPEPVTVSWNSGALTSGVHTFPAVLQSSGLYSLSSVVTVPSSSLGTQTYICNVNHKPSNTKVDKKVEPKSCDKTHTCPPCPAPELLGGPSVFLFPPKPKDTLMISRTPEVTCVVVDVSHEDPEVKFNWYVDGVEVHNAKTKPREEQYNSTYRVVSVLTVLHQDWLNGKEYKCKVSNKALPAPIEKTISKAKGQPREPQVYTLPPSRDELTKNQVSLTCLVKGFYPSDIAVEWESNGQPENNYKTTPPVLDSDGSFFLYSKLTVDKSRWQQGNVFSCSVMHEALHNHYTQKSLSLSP
light: B4 light
B17: H50/L28 (antibody, human IgG1, kappa)
heavy: not shown
light: B4 light with R27Q
B18: H49/L34 (antibody, human IgG1, kappa)
heavy: not shown
light: B4 light with Q17R
B19: H47/L31 (antibody, human IgG1, kappa)
heavy: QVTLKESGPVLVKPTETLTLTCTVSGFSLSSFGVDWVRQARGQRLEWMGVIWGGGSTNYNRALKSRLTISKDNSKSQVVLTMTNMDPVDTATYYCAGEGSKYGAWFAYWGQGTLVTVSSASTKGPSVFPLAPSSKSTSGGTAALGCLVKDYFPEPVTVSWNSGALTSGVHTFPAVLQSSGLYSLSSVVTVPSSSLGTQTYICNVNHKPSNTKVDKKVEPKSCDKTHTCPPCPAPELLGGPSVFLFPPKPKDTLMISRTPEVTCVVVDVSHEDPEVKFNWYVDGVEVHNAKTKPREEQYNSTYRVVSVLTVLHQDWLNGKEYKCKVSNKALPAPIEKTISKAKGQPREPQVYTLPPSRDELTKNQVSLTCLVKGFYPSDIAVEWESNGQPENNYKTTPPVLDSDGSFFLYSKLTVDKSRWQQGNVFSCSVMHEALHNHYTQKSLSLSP
light: B4 light
B20: H50/L34 (antibody, human IgG1, kappa)
heavy: not shown
light: B4 light with Q17R
B21: H48/L1 (antibody, human IgG1, kappa)
heavy: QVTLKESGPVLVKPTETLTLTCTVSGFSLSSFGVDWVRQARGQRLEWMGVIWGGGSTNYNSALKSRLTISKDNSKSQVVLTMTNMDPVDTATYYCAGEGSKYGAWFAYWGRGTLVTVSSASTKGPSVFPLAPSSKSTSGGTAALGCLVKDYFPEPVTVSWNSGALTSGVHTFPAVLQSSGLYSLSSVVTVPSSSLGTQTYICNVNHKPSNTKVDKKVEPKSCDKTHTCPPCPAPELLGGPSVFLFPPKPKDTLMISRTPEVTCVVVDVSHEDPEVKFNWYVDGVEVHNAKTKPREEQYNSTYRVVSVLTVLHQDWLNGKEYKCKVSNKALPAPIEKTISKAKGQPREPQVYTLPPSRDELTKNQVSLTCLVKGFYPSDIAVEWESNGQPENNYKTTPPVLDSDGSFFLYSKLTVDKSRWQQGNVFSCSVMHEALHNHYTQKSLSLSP
light: B4 light with R24Q, R27Q, K50E
B22: H47/L37 (antibody, human IgG1, kappa)
heavy: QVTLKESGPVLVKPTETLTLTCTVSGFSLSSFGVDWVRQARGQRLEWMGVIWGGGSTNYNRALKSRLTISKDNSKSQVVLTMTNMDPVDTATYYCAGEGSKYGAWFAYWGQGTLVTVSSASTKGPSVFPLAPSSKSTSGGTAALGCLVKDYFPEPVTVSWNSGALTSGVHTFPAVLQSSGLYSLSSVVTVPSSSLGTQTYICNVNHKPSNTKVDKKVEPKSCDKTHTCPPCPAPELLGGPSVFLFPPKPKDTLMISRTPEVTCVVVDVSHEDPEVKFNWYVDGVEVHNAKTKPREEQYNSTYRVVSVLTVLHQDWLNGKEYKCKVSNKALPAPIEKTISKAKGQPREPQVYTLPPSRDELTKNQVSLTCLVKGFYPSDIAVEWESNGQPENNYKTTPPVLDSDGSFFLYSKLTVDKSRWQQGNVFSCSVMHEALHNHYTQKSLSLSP
light: B4 light with Q17R, Q105R
B23: H49/L37 (antibody, human IgG1, kappa)
heavy: not shown
light: B4 light with Q17R, Q105R
B24: H50/L35 (antibody, human IgG1, kappa)
heavy: not shown
light: B4 light with Q105R
B25: H47/L35 (antibody, human IgG1, kappa)
heavy: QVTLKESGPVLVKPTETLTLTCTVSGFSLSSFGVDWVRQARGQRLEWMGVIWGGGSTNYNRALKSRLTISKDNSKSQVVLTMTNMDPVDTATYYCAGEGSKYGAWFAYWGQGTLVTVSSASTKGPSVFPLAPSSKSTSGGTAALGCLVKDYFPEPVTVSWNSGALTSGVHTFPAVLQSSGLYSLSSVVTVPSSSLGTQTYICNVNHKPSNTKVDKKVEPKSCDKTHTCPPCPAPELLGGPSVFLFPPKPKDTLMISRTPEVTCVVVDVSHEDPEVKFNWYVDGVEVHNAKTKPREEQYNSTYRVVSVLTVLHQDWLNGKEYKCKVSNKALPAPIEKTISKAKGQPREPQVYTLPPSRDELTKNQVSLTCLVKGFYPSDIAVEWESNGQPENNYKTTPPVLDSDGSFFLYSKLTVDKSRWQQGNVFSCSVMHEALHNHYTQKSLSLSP
light: B4 light with Q105R
B26: H49/L27 (antibody, human IgG1, kappa)
heavy: not shown
light: B4 light with K50E
B27: H49/L11 (antibody, human IgG1, kappa)
heavy: not shown
light: B4 light with R24Q, R27Q, K50E, L109V, K112E
B28: H50/L1 (antibody, human IgG1, kappa)
heavy: not shown
light: B4 light with R24Q, R27Q, K50E
B29: H50/L11 (antibody, human IgG1, kappa)
heavy: not shown
light: B4 light with R24Q, R27Q, K50E, L109V, K112E
B30: H48/L10 (antibody, human IgG1, kappa)
heavy: not shown
light: B4 light with R27Q, K50E, L109V, K112E
B31: H49/L1 (antibody, human IgG1, kappa)
heavy: not shown
light: B4 light with R24Q, R27Q, K50E
B32: H49/L35 (antibody, human IgG1, kappa)
heavy: not shown
light: B4 light with Q105R
B33: H49/L10 (antibody, human IgG1, kappa)
heavy: not shown
light: B4 light with R27Q, K50E, L109V, K112E
B34: H48/L0 (antibody, human IgG1, kappa)
heavy: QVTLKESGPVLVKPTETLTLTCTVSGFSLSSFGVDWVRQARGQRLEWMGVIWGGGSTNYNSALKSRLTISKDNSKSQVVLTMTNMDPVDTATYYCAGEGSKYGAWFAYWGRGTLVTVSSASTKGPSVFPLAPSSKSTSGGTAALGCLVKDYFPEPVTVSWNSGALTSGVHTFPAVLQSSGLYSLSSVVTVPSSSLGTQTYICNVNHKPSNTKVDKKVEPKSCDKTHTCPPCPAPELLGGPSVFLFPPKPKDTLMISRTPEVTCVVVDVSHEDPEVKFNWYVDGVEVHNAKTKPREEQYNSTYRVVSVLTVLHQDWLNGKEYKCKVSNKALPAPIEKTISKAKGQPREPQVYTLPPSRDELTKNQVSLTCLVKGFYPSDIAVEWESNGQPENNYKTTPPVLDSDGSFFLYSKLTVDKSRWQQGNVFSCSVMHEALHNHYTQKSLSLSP
light: B4 light with R27Q, K50E
B35: H50/L10 (antibody, human IgG1, kappa)
heavy: not shown
light: B4 light with R27Q, K50E, L109V, K112E
B36: H50/L0 (antibody, human IgG1, kappa)
heavy: not shown
light: B4 light with R27Q, K50E
B37: H48/L37 (antibody, human IgG1, kappa)
heavy: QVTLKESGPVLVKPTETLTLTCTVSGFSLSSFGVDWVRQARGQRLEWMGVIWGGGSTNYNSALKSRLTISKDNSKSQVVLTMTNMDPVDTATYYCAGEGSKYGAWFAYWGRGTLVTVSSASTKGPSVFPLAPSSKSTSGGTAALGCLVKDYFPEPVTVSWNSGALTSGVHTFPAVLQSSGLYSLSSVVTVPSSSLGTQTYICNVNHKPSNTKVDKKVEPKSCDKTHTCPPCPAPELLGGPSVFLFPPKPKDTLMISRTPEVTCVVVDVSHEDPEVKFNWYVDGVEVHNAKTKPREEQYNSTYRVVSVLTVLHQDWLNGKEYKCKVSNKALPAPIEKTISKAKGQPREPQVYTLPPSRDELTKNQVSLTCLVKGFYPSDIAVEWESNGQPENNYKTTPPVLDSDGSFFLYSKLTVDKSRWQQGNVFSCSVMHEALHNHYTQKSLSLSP
light: B4 light with Q17R, Q105R
B38: H49/L28 (antibody, human IgG1, kappa)
heavy: not shown
light: B4 light with R27Q
B39: H32/L21 (antibody, human IgG1, kappa, V domains shown)
VH: B3 VH with S61E, K64Q, S65D, T73N, Q111E
VL: B1 VL with R24Q, G34A, L109V, K112E
B40: H9/L36 (antibody, human IgG1, kappa, V domains shown)
VH: B3 VH with T73N
VL: B1 VL with G34A
B41: H36/L36 (antibody, human IgG1, kappa, V domains shown)
VH: B3 VH with P41R, K43Q, G44R, T73N
VL: B1 VL with G34A

Target: T1, Human recombinant AXL-FND1 (GST-FND1), from pET-41b(+) (human, UniProt P30530 225-331)
T1 construct: Expressed in E. coli, purified on Glutathione Sepharose; analyte in all Biacore measurements; GST put first by the usual layout of pET-41; not shown: GST-tag of vector pET-41b(+) (Novagen)
T1 sequence (looked up): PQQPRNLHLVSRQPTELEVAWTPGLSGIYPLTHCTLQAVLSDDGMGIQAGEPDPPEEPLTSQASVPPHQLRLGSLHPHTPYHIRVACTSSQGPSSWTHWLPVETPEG
Assay: SPR (Biacore T100): antibody captured on Protein A, GST-FND1 as analyte
Procedure: (§1) Kinetic analyses of antigen-antibody reactions of humanized AXL antibodies were carried out using Biacore T100 (BIACORE). rec-Protein A (Zymed) (hereinafter, Protein A) was immobilized onto a sensor chip, various antibodies were bound to it, then an antigen as the analyte was flushed to measure the antibody-antigen interaction. Human recombinant AXL-FND1 (prepared in 2-2; hereinafter referred to as GST-FND1) prepared at various concentrations was used as the antigen. From the sensorgrams obtained through the measurements, kinetic parameters, namely binding rate constant kₐ (1/Ms) and dissociation rate constant kd (1/s), were calculated, and Kd (M) was calculated based on these values. Biacore T100 Evaluation Software (BIACORE) was used to calculate each of the parameters.
(§2) The sensor chips were produced by immobilizing approximately 3000 RU of Protein A onto CM5 (BIACORE) by amine coupling. Using the produced sensor chip, kinetic analyses were carried out on the interaction between the Protein A-bound antibodies and GST-FND1. HBS-EP+ was used as the running buffer, and the flow rate was set to 30 μL/min. Each antibody was prepared at 1 μg/mL using the running buffer, and was subjected to binding with Protein A for two minutes. GST-FND1 as the analyte was prepared at 0.5 and 2.0 μg/mL using HBS-EP+. […]

Row | Binder | Kd
1 | B1 | 1.59 nM
2 | B2 | 12.3 nM

Target: T1, Human recombinant AXL-FND1 (GST-FND1), …
Assay: as above
Remark: another data set of the same source
Procedure: as §1, §2

Row | Binder | Kd
3 | B3 | 4.44 nM

Target: T1, Human recombinant AXL-FND1 (GST-FND1), …
Assay: as above
Remark: another data set of the same source
How it was run: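 Antibodies (1 μg/mL) were captured for 2 min on a Protein A CM5 chip. GST-FND1 (0.5 and 2.0 μg/mL) in HBS-EP+ was flowed at 30 μL/min with 2 min association and 2 min dissociation at 25° C. ka and kd were fitted from sensorgrams and Kd was calculated from them.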

Row | Binder | Kd
4 | B4 | 1.94 nM
5 | B5 | 2.2 nM
6 | B6 | 1.52 nM
7 | B7 | 2.27 nM
8 | B8 | 2.06 nM
9 | B9 | 1.93 nM
10 | B10 | 2.07 nM
11 | B11 | 2 nM
12 | B12 | 2.72 nM
13 | B13 | 2.07 nM
14 | B14 | 1.95 nM
15 | B15 | 1.99 nM
16 | B16 | 1.98 nM
17 | B17 | 1.97 nM
18 | B18 | 2.21 nM
19 | B19 | 1.83 nM
20 | B20 | 2.36 nM
21 | B21 | 2.09 nM

Row | Binder | Kd
22 | B22 | 2.38 nM
23 | B23 | 2.43 nM
24 | B24 | 2.24 nM
25 | B25 | 1.68 nM
26 | B26 | 2.08 nM
27 | B27 | 1.92 nM
28 | B28 | 1.86 nM
29 | B29 | 1.82 nM
30 | B30 | 2.06 nM
31 | B31 | 1.91 nM
32 | B32 | 2.08 nM
33 | B33 | 2.05 nM
34 | B34 | 2.09 nM
35 | B35 | 1.9 nM
36 | B36 | 1.89 nM
37 | B37 | 2.19 nM
38 | B38 | 2.11 nM

Target: T1, Human recombinant AXL-FND1 (GST-FND1), …
Assay: as above
Remark: another data set of the same source
Procedure: as §1
The sensor chips were produced by immobilizing approximately 3000 RU of Protein A onto CM5 (BIACORE) by amine coupling. Using the produced sensor chip, kinetic analyses were carried out on the interaction between the Protein A-bound antibodies and GST-FND1. HBS-EP+ was used as the running buffer, and the flow rate was set to 30 μL/min. Each antibody was prepared at 1 μg/mL using the running buffer, and was subjected to binding with Protein A for two minutes. GST-FND1 as the analyte was prepared at 0.5 and 2.0 μg/mL using HBS-EP+. Measurements were carried out by first binding the various humanized AXL antibodies, chimeric AXL antibodies, or mouse AXL antibodies of interest to Protein A, then applying an analyte solution to them for a two-minute interaction, and then switching to HBS-EP+ (BIACORE) for a two-minute measurement of the dissociation phase. After completion of measurement of the dissociation phase, 30 μL of 10 mM glycine-HCl (pH 2.0) was used for washing to regenerate the sensor chip. Such binding, dissociation, and regeneration were defined as one cycle of analysis. All experiments were performed at 25° C.
Affinity measurements on the produced variants were carried out by the method of Example 2.

Row | Binder | Kd
39 | B39 | 3.81 nM
40 | B40 | 3.6 nM
41 | B41 | 2.59 nM
